The target of the assay is microtubule polymerized from porcine brain tubulin, stabilized with paclitaxel (porcine). In words: co-sedimentation.

One may read the Kd as the free concentration of one partner at which half of the binding sites on the other are occupied at equilibrium, for simple one-to-one binding. A higher Kd goes with lower affinity. Substance “purified γ stalk–LC1 complex (from UniProt Q9XHH2 1-198)” gave a Bmax/Kd of 0.053 and a Kd of 19 µM.

For the origin of these results see PMC4642857.
